Results on 3 molecules are retold here after patent US20210101970A1 (Pfizer, published 2021).

One test concerns the target T1, CXCR1 (human, UniProt P25024 1-350).
T1 construct: whole, on cells
T1 sequence (looked up): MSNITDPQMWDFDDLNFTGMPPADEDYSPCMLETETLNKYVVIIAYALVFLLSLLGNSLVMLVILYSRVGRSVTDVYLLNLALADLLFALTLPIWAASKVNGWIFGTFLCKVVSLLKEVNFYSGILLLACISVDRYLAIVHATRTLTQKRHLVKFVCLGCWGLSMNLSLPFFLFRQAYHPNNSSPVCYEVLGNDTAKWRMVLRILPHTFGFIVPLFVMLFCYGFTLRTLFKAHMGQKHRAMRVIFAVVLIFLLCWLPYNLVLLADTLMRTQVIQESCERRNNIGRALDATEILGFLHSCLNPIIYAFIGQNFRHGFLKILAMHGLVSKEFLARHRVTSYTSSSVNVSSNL
Description: flow cytometry (GMFI) on fixed CXCR1 cells, chimeric antibody, goat anti-human PE. The procedure:
To determine the specificity of the antibodies for CXCR5, the binding of the antibodies to cells expressing other […] was assessed. Briefly, FlowCellect chemokine receptor cell lines expressing CXCR1, CXCR2, or CXCR3 (EMD Millipore, Billerica, Mass.), and Jurkats (ATCC, Manassas, Va.), which express CXCR4, were stained with 5 μg/ml or 10 μg/ml of each anti-CXCR5 chimeric antibody. The cells were then incubated with goat anti-human conjugated with PE (Southern Biotech, Birmingham, Ala.) prior to analysis by flow cytometry using a FACSVerse Analyzer (BD Biosciences, Franklin Lakes, N.J.).

Another test concerns the target T2, cynomolgus monkey CXCR5 (cynomolgus monkey, UniProt P32302 1-372 (human entry)).
T2 construct: also called cynoCXCR5; NHP CXCR5
T2 chain: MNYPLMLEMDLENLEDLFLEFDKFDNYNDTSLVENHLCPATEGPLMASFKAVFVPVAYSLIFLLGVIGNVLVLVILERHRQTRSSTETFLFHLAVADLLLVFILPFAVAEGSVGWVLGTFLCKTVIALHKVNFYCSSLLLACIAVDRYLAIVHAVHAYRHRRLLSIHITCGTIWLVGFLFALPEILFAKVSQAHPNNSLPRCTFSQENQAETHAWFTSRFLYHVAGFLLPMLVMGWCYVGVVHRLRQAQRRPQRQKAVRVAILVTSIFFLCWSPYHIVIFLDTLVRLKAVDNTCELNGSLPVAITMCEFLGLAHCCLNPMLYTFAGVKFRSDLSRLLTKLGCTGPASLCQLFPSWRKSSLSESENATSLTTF
Description: flow cytometry on cynoCXCR5-300.19 cells. (Flow cytometry measures light scatter and fluorescence of single cells or particles in a stream.)

Test [1] has as its target T3, human CXCR5 (human, UniProt P32302 1-372).
T3 construct: also called hCXCR5; C-X-C chemokine receptor type 5
T3 sequence: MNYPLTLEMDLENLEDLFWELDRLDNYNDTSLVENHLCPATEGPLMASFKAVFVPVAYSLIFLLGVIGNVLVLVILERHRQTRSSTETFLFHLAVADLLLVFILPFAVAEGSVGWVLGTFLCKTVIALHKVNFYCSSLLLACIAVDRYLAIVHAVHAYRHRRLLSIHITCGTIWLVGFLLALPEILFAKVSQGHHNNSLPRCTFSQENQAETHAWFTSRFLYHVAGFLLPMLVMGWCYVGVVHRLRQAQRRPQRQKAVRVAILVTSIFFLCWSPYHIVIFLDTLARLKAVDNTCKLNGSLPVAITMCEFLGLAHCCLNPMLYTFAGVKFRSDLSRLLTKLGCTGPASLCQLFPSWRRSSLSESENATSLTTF
Description: flow cytometry on Raji cells, gMFI titration. Here is the method: The apparent affinity of antibody binding to Raji cells was calculated as the EC₅₀ of equilibrium binding titration curves in which the geometric mean fluorescence intensity (gMFI) of the antigen binding population was quantified by flow cytometry and the results are shown in Table 2.

Test [2] concerns the target T3, human CXCR5. Description: flow cytometry, B cells from human PBMCs (FIG. 5); afucosylated.
The target of another test is T4, rabbit CXCR5 ortholog (rabbit, UniProt G1TNG1 1-374).
T4 sequence: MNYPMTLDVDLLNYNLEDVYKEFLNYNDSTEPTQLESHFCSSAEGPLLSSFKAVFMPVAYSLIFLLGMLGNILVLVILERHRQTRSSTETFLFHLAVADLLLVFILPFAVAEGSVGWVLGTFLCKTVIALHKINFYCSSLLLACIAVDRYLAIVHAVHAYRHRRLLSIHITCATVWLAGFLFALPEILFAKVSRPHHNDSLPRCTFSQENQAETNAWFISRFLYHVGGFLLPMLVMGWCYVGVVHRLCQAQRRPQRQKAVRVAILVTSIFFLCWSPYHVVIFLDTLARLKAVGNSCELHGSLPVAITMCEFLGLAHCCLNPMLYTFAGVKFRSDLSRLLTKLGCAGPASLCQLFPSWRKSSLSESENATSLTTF
Description: not described.

The next test addresses T5, rat CXCR5 ortholog (rat, UniProt P34997 1-374).
T5 sequence (looked up): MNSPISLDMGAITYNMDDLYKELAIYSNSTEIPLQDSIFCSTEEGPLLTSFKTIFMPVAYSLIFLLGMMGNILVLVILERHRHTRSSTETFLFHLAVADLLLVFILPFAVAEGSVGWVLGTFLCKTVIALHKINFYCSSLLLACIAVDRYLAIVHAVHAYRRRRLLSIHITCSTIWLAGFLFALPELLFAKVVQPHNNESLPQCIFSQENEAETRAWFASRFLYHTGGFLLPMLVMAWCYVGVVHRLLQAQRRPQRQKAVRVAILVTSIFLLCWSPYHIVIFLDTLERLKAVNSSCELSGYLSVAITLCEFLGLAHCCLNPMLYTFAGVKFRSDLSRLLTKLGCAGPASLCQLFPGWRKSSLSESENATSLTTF
Description: not described.

B1: Chimeric 11G2 (antibody, human IgG1, kappa, V domains shown)
VH: EVKLVESGGGLVQPGGSLRLSCATSGFTFTDFYMSWVRQPPGRALEWLGFIRNKANGYTTEYSASVKGRFTISRDNSQSILYLQMNTLRAGDSATYYCVRVYGSTLHYWGQGTILTVSS
VL: DVVVTQSPDSLAVSLGQRATISCRASESVEYHGTSLMHWYQQKPGQPPKLLIYAASNVESGVPARFSGSGSGTDFSLNIHPVEEGDIAMYFCQQSRKVPWTFGGGTKLEIKR
notes: mouse V regions on human IgG1/kappa; also called 11G2 (chimeric)
Consider B1, for which, in the test with CXCR1, the binding result is “no binding (tested: 5 or 10 µg/ml (not on the sheet))”.

B2: 2C9 (reference antibody) (antibody, human IgG1, kappa, V domains shown)
VH: EVQLVESGGGLVKPGGSLRLSCAASGFTFSTNAMNWVRQAPGKGLERVARIRSKSNNYATYYADSVKDRFTISRDDSKNTLYLQMNSLKTEDTAVYYCVTMIPFAYWGQGTLVTVSS
VL: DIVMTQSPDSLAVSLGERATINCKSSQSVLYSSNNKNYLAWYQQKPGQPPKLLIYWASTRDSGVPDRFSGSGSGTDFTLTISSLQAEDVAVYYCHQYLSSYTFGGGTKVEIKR
notes: fucosylated
In general, EC50 refers to the concentration that produces a half-maximal response. For the molecule B2, the EC50 in the test with cynomolgus monkey CXCR5 amounted to 130 pM; with human CXCR5 [1], 210 pM.

B3: Afucosyl humanized 11G2 154/155 (antibody, human IgG1, kappa, V domains shown)
VH: EVQLVESGGGLVQPGGSLRLSCAASGFTFTDFYMSWVRQAPGKGLEWVGFIRNKANGYTTEYSASVKGRFTISRDNAKNSLYLQMNSLRAEDTAVYYCARVYGSTLHYWGQGTLVTVSS
VL: DIQMTQSPSSLSASVGDRVTITCRASESVEYHGTSLMHWYQQKPGKAPKLLIYAASNVESGVPSRFSGSGSGTDFTLTISSLQPEDFATYYCQQSRKVPWTFGQGTKVEIKR
modifications: afucosylated Fc glycan (Asn297)
notes: also called afucosyl h11G2 XC154/XC155; afucosylated h11G2 VL XC154/VH XC155
B3 displayed an EC50 with human CXCR5 [2] of 11.9 pM. Further, the binding result in the test with rabbit CXCR5 ortholog and with rat CXCR5 ortholog was “no binding” in each case.
